The values below are quoted from earlier work in publication PMC4512752.

Like-named read-outs stand apart in the source and are kept apart here.

The term Kd denotes the constant that tells how readily two partners part at equilibrium.

Experiment in all cases: MALLS
The target in series [1] is Arrestin-1 (Homo sapiens) (UniProt P10523).
In series [2] the target is Arrestin-1 (Mus musculus) (UniProt P20443).
For series [3], the target named is Arrestin-2 (Bos taurus) (UniProt P17870).
The target is the same in series [4]. This is another data set of the same source.
Series [5] deals with Arrestin-3 (Bos taurus) (UniProt P32120).
The target is the same in series [6]. The source holds these as a separate data set.

With Arrestin-1 (from UniProt P10523), in series [1], the Kd is 2.95 µM.

Arrestin-1 (from UniProt P20443): the dissociation constant Kd in series [2] is 57.5 µM.

As for Arrestin-2 (from UniProt P17870), the equilibrium dissociation constant (Kd) was 100 µM in series [3] and 5.5 µM in series [4].

Take Arrestin-3 (from UniProt P32120): the dissociation constant Kd is 100 µM in series [5] and 7.8 µM in series [6].
